Patent US8273357B2, “Antigen-carbohydrate conjugates” (Massachusetts Institute of Technology, priority 2004, dated 2012)

Key:
[1] = system: OTI (CD8+) T cells in unfractionated splenocytes; experiment: Antigen presentation assay (MHC class I), unfractionated OTI splenocytes, [3H]thymidine T cell proliferation; format: cell-based, mouse
Method: FIGS. 3A and 3B are graphs showing that nonasaccharide 3-1-promoted presentation via MHC class I pathway for presentation to CD8^+ T cells. […] Unfractionated OTI splenocytes (3×10^5/well) were incubated with graded doses of OVA±(OVA)-3-1 (50 ng mL^−1) or (OVA)-3-1±(BSA)-3-1 (10 μg mL^−1). Incubations were performed for seventy-two hours with [^3H]thymidine (1 μCi) added for the last twelve hours. FIG. 3B is a graph showing that the monosaccharide mannose 3-6 targets a different receptor than 3-1. OTII splenocytes were incubated with graded doses of monosaccharide-modified OVA±(BSA)-3-1 and T cell proliferation was measured as described for FIG. 3A. Values present the mean of triplicate measurements.
Accessing the transporter of antigenic peptides (TAP) and thereby achieving cross-presentation of antigen by dendritic cells to MHC class I restricted CD8+ T cells led to efficient stimulation of these T cells and, in the steady state, their apoptotic deletion from the T cell repertoire^3. To determine if the receptor promoting (OVA)-3-1 uptake can process proteins through the MHC class I pathway, (OVA)-3-1 and OVA were incubated with unfractionated splenocytes isolated from OTI (CD8^+) mice. The T cells from transgenic OTI mice recognized an eight amino acid residue sequence (SIINFEKL (SEQ ID NO: 14)) derived from OVA and were therefore utilized to gauge the efficiency of DC presentation of MHC class I antigenic peptides. A moderate (10-fold) increase in the efficiency of MHC class I presentation with (OVA)-3-1 as compared to OVA alone was observed (FIG. 3A).
Pooled inguinal lymph nodes were dissociated in 10% Fetal Bovine Serum RPMI (supplemented with 2 mM L-glutamine) and either mechanically dissociated between two glass slides or, to improve the overall cell yield, incubated in the presence of collagenase (Boehringer) and EDTA for 25 minutes at 37° C./5% CO2 to dissociate DC-T cell clusters. For antigen presentation assays with whole splenocytes, isolated spleens were injected with collagenase/EDTA, gently teased apart and incubated as described above. […]

OTII T cells = experiment: Adoptive transfer, immunization, OVA peptide/CFA rechallenge at day 8, OTII cell count at day ten; format: in vivo, mouse
Method: FIGS. 8A and 8B are a series of dot plots (FIG. 8A) and a graph (FIG. 8B) showing that the oligosaccharide-mediated targeting of steady state dendritic cells leads to T cell tolerance. […] 2×10^7 OTII splenocytes were adoptively transferred into B6.Ly5.2/Cr recipients and then immunized by subcutaneous injection with PBS, OVA (200 ng), (OVA)-3-1 (200 ng), (OVA)-3-1 (200 ng)+mBSA (50 μg) or OVA peptide (100 μg) in Incomplete Freund's Adjuvant. At 8 days after these initial immunizations, mice received an antigenic rechallenge of OVA peptide (100 μg) in Complete Freund's Adjuvant. On day ten mice were sacrificed and cells were isolated from the draining lymph node, total T cells were purified by negative selection and the number of OTII T cells were counted by FACS as described for FIG. 6. […] Purified T cells from each experimental group were seeded at 3×10^5 cells/well with purified […] dendritic cells (9×10^4/well) and were incubated for twenty-four hours±OVA peptide (100 μg mL^−1) with [^3H]thymidine (1 μCi) added for the last ten hours. Prior to [^3H]thymidine addition, an aliquot of supernatant was removed for IFN-γ determination by ELISA.
At three days post-immunization, antibody-based targeting of the DEC-205 receptor led to a 6.5-fold enhancement of T cell activation relative to non-targeted antigen^2. After seven days, however, the activated T cell population diminished in number by 88% and the remaining T cells were unresponsive to systemic challenge of antigen in the highly stimulatory adjuvant CFA. […] To more fully understand the immunological consequences of these enhancements, OVA peptide (100 μg) was administered in CFA at eight days post-antigen immunization and the T cells' ability to respond to DC-presented peptide in vitro was assayed two days later (FIGS. 8A and 8B)^2: A positive control for T cell tolerance, consisting of a high dose administration of OVA peptide (100 μg) in Incomplete Freund's Adjuvant was also included. This regimen has been shown in a number of different studies to led to a state of T cell unresponsiveness upon antigen rechallenge^24,25.

[2] = two days post-antigen rechallenge in CFA (day ten)

B1: (OVA)-3-1: ovalbumin modified via SMCC with nonasaccharide 3-1, average of three saccharides per OVA (conjugate)
chain: GSIGAASMEFCFDVFKELKVHHANENIFYCPIAIMSALAMVYLGAKDSTRTQINKVVRFDKLPGFGDSIEAQCGTSVNVHSSLRDILNQITKPNDVYSFSLASRLYAEERYPILPEYLQCVKELYRGGLEPINFQTAADQARELINSWVESQTNGIIRNVLQPSSVDSQTAMVLVNAIVFKGLWEKAFKDEDTQAMPFRVTEQESKPVQMMYQIGLFRVASMASEKMKILELPFASGTMSMLVLLPDEVSGLEQLESIINFEKLTEWTSSNVMEERKIKVYLPRMKMEEKYNLTSVLMAMGITDVFSSSANLSGISSAESLKISQAVHAAHAEINEAGREVVGSAEAGVDAASVSEEFRADHPFLFCIKHIATNAVLFFGRCVSP
Q: Which results are given for B1?
A: direct activation of OTI T cells ([1]; (OVA)-3-1 50 ng mL^−1 added to OVA): did not achieve this enhancement via direct activation of T cells; increase in the efficiency of MHC class I presentation as compared to OVA alone ([1]; OTI splenocytes): 10 fold; presentation of antigenic peptides to CD8+ T cells ([1]; OTI splenocytes, graded doses): enhanced presentation; number of OTII T cells compared with OVA immunized mice (OTII T cells; day ten after immunization): much greater number; T cell deletion in vivo (OTII T cells; mouse, in vivo): not observed; number of OTII cells relative to the saline control group (OTII T cells; [2]): 6 fold; number of OTII cells relative to unmodified (soluble) OVA (OTII T cells; [2]): 7.8 fold
